Reference: patent US20030129189A1, “Tumor necrosis factor-gamma” (priority 1994, published 2003)

Tests used:
Experiment in all cases: flow cytometry on transiently transfected cells
[1] = target: T1, CD27 on transiently transfected cells (UniProt P26842 20-260, limits assumed)
T1 construct: whole, on cells
T1 sequence (looked up): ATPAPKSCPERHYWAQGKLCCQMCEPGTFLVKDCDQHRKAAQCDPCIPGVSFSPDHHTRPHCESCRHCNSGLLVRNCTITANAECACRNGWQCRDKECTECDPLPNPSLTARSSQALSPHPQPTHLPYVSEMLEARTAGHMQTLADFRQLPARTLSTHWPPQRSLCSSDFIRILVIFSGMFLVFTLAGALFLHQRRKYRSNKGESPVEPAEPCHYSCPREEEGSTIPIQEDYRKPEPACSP
Description: (§1) One million cells, in 0.1 ml of FACS buffer (PBS, 0.1% BSA, 0.1% NaN₃), were incubated with 0.1-1 microgram of protein or antibody at RT for 15 min. The cells were washed with 3 ml of FACS buffer, reacted with biotinylated primary antibody, and stained with PE-conjugated secondary antibody at RT for 15 min. Cells were then washed again, resuspended in 0.5 microgram/ml of propidium iodide, and live cells were gated and analyzed on a FACScan using the CellQuest software (BD Biosciences).

[2] = target: T2, CD30 on transiently transfected cells (UniProt P28908 19-595, limits assumed)
T2 construct: whole, on cells
T2 sequence (looked up): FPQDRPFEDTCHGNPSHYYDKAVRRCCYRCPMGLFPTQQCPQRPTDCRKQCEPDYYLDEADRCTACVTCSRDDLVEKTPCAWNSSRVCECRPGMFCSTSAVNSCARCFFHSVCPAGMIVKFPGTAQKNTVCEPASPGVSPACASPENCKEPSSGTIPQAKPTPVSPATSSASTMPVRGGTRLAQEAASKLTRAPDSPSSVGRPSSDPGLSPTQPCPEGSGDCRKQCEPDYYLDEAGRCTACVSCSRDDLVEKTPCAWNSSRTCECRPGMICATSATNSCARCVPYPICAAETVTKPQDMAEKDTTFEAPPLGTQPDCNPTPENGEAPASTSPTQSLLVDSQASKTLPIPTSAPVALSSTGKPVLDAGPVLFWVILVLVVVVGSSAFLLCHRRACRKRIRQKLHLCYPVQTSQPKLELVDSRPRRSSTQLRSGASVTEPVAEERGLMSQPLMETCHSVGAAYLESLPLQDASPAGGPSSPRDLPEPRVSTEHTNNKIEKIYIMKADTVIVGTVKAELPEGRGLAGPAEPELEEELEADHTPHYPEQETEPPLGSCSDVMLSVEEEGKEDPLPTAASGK
Description: as §1

[3] = target: T3, DR4 on transiently transfected cells (UniProt O00220 24-468, limits assumed)
T3 construct: whole, on cells
T3 sequence (looked up): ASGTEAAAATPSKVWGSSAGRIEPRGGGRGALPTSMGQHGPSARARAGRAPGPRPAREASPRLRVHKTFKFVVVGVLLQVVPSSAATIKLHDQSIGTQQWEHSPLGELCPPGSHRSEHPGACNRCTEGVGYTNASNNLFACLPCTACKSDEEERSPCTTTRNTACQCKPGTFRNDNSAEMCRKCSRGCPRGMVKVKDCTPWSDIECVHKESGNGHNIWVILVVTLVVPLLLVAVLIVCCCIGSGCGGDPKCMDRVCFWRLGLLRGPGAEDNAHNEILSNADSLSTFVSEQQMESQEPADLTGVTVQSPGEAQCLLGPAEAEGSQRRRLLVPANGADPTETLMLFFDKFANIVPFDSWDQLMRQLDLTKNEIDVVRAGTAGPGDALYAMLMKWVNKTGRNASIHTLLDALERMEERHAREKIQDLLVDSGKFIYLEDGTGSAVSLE
Description: as §1

[4] = target: T4, DR5 on transiently transfected cells (UniProt O14763 56-440, limits assumed)
T4 construct: whole, on cells
Description: as §1

[5] = target: T5, DcR1 on transiently transfected cells (UniProt O14798 26-236, limits assumed)
T5 construct: whole, on cells
T5 sequence (looked up): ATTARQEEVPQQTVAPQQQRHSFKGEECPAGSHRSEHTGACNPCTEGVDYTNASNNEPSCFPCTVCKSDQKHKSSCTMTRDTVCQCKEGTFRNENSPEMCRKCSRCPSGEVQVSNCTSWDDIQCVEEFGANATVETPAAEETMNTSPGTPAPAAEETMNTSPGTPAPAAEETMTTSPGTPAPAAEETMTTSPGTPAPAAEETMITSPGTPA
Description: as §1

[6] = target: T6, DcR2 on transiently transfected cells (UniProt Q9UBN6 56-386, limits assumed)
T6 construct: whole, on cells
T6 sequence (looked up): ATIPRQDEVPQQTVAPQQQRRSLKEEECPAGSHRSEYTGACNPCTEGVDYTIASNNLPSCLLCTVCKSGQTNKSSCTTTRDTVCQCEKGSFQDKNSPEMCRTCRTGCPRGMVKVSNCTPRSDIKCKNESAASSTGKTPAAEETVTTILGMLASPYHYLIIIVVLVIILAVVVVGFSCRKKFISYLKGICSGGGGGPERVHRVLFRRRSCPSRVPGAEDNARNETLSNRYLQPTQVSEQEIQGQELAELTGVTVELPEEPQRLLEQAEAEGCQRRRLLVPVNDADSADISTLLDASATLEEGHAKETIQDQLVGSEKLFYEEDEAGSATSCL
Description: as §1

[7] = target: T7, AITR on transiently transfected cells (UniProt Q9Y5U5 26-241, limits assumed)
T7 construct: whole, on cells
T7 sequence (looked up): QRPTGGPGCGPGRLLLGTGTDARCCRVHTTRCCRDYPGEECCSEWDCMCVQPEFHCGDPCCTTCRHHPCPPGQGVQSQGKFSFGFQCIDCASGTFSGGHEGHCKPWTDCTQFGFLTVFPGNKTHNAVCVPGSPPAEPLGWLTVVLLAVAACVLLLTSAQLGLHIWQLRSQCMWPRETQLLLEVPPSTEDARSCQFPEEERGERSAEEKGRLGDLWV
Description: as §1

Measured: binding result

B1: FLAG-tagged soluble TNF-gamma-beta (aa 72-251) (ligand)
chain: LKGQEFAPSHQQVYAPLRADGDKPRAHLTVVRQTPTQHFKNQFPALHWEHELGLAFTKNRMNYTNKFLLIPESGDYFIYSQVTFRGMTSECSEIRQAGRPNKPDSITVVITKVTDSYPEPTQLLMGTKSVCEVGSNWFQPIYLGAMFSLQEGDKLMVNVSDISLVDYTKEDKTFFGAFLL
notes: also called FLAG-TL1β; FLAG-TNF-gamma-beta; not shown: The N-terminal FLAG tag (pFLAG-CMV-1 vector) and any vector linker
no binding: all assays above
